How the values were obtained:
[1] = target: human CD33 on cells (human) (UniProt P20138); assay: cell-based or functional assay
[2] = target: human CD123 on cells (human) (UniProt P26951); assay: cell-based or functional assay
Sequence of human CD123 on cells (human) (P26951 19-378 limits assumed): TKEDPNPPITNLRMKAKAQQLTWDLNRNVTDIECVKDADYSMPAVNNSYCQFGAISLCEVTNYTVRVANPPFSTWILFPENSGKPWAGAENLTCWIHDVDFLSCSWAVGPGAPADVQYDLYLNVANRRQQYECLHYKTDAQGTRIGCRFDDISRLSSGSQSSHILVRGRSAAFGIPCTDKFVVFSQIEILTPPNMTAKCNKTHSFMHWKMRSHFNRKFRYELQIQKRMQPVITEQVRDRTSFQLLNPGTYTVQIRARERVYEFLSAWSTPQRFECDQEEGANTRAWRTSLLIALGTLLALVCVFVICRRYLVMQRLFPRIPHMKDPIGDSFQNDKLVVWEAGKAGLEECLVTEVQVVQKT

Sequence of human CD33 on cells (human) (P20138 18-364): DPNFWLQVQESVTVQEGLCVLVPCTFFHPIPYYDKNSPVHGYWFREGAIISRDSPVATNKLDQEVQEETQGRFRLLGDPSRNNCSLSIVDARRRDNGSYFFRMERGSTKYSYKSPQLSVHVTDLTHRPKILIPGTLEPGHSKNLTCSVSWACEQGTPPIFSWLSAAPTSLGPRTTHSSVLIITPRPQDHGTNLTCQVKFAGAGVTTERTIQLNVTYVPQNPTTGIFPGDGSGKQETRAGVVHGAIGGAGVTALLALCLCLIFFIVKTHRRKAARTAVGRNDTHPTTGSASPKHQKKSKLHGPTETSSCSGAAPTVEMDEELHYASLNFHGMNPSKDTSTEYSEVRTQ

“CD123/CD3 DART MGD006 (bispecific antibody)” gave a % Lysis, human T cell mediated U-937 cell killing [1] of 13%, an EC50 (M), flow cytometry based human T cell mediated U-937 cell killing, E:T 10:1 [1] of 8.9e-13 M and a % Lysis, human T cell mediated KG-1a cell killing [2] of 58%. For the same substance, the EC50 (M), flow cytometry based human T cell mediated KG-1a cell killing, E:T 10:1 [2] was 3e-12 M.
Work on “CD33/CD3 BiTE AMG 330 (bispecific antibody)” yielded a % Lysis, human T cell mediated U-937 cell killing [1] of 55%, an EC50 (M), flow cytometry based human T cell mediated U-937 cell killing, E:T 10:1 [1] of 1.1e-11 M and a % Lysis, human T cell mediated KG-1a cell killing [2] of 15%. It also gave an EC50 (M), flow cytometry based human T cell mediated KG-1a cell killing, E:T 10:1 [2] of 8.7e-12 M.
